# Data published in a protein production outcome set (Wang et al. 2014).
# Assay: label from the status in PepcDB records
# 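Further: failed if final PepcDB status was selected cloned or expressed and not failed if soluble or beyond.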
row,Sequence,protein production
1,METAKDGEQSPSEASPPTQAGPETISEPVPLEEEGQPLYHEETIDLGGDDFASEETEPTSEGSHNFGDKLNEHMMESVLISDSPNNSEGDVGDLGCLQDVGEPPRGATDHRLPDSTDKEVVDTLSNGSETDGDDTPRDISDMTPDSRASLKEDSTQEDVPAMPALENAGTEEVGPKDSLVPREEQTSEVSSSQSSSKDEPLPVCTIFSQATSTSSQPHLFLQDGFESQMVKSPSFSSTSETSAKTPPPMVQPSPSLSTFFGDTMSSNSLASDFFDSFTTSTFISVSNPNAGSPVPEKLASLTAPVGEKSPDSTSPSYSTRMDRSESGVSRAALDVPESPKPFSQIQAVFAGSDDPFATALSMSEMDRRNDAWLPSQATREVLMSVATQQYGTVFIDKENLTMPGLKFDNIQGDAVKDLMLRFLGEKAAAKRQVLNASSVEQSFVGLKQLISCRNWRAAVDLCGRLLTAHGQGYGKSGLPTNHTTDSLQLWFVRLALLVKLGLFQNAEMEFEPFGNLDQPDLYYEYYPHVYPGRRGSMVPFSMRILHAELQQYLGNPQESLDRLHRVKTVCSKILANLEQGLAEDGGLSSVTQESRQASVQLWRSRLGRVLYSMANCLLLMKDYVLAVNAYLTVIKYYPEQEPQLLSGIGRILLQIGDIKTAEKYFQDVEKVTQKLDGLQGKIMVLMNRAFLYLGQNNFAEAHKFFTEILRMDPTNAVANNNAAVCLLYLGKLKDSLRQLEAMVQQDPRHYLHESVLFNLTTMYELESSRSMQKKQSLLEAVASKEGDSFNTQCLKLA,failed
2,METEGSLSILHVDDDAELGALVELYLEREDSGLDCTVTTETNPETALSLIRSSETNFDCIVSDYDMPEMNGIDFLEAIRETHPELPVLLFSGEETGDVAAEIIQAGVTDYLKKSVGTDQYTSLIRRVEHAVDSDGSFETGNEVKLSGVGVIGTDERFERVGETYASYYGYESEELVGKHWSELHPSNEVQHIRTHVIPAVRSGGKWTGQSKGLRADETTFTESKMVTALEDGRMLIAVDEIDDSGLAE,failed
3,METGAGIGLYPLHRCKTIYLVRHAQGIHNVDGEKNYKAYMSHDYFDAELTQLGWKQVDSLRKHVHSSGLHKKIELVISSPLMRTLQTAVGVFGGEGYTDMSDVLPLMVANAGNSSRAAISSLNCPPVITEESCREHLGVHPCDQRRSISDYQFLFPAVDFSLIESEEDKLWKADVRETIEELAARGKKFLNWLWTRKEKEIAIVTHSGFLFHTLNALQNECHPDVKKEICGHFANCELRSMVIVDRSMLGSDSSVTDYPGKIPKGIDLPSDAVVDDNNIKVE,not failed
4,METKGTGMTVNTVDVSAGRAQQVLREGWAAQRAGALTTSWMLHGRPGVGKTEIVRQLAAEQGARFYDLRLTTIESQDLRGLPYYDHETKKTQWYRPEDLPDDPDRPSLLFLDELTAAPPHLHPAVYGLLLERRVGPHILPDNVFLVAAGNMVEDGAVAYEMGTALSDRLIHLQVRATASDWLESYAVPRTLHPAVLAFIRMRPDLLETTAEALDRGLMISTTPRSWDRVSRIMGAVQDRALRRIMVAGTVGEAVAAEFMLVADDIEASVSVERLLNAAPHERIMLYPESMHGLHALIYGLVGALGPTTAVPVIDVMAGIRTLDVHRSDASFARMPLAELCTHGFEMAIRRGLEQGLAEDFLGHPAYAAYASERQAMGLELEHHHHHH,failed
5,METLDNHDQGFCRQVPRQAVCGFSRRTGWGGAAIFVMLMTLALAAPVQAQSLRQGVSAYQRQDYVAASRIFIPLAERGNAAAQTYLGLLFETGRGLPQNYTEAAMWYRRAAEQGDSRAQYSLGLLYDRGFGVPQDVVEASKWLNLSTAAAPPRAREARVRIRDAVTTKMTRGEIAQARLRALEWAPSREH,failed
6,METNQLRGIFYMMAAMLLISVQEALAKYLGQALPVAQVVWARYLGHLVLMIILLWPKNGMSLLKTNKLFIQIARSLILLIDTVLFFFGLTMLGLAEATAIFFTVPLLVLLLSIPLLGERVSASSIVAVIVGFIGTLIIVRPGINGLGSSDLGIGALFIFGAACCTAIYNVTTRKLSASEPIPVTLFYTAIVGAVVTSLFLPFIWETPTSLEVWAALIFIGLFGGSAHSLIIISHKYAAATTVAPFIYSQIFWALGLGWLMFGELPDFYVYFGGAIVISSGLYLFYHGRTRVNTASQQLGKDPLLVNAAKIKALQNRP,failed
7,METPKGTIIFTTVGRTHYGFDVFSLNIATSVERRLTDGVSVNFNAQFVNDKSDDVVFVSERNGSARIYKTRSGISKPEQIPGAPESYFHDRPIITQNNRLYFISAHEQPDRYFKNWSALYTVELNSAKREVTRVTPPDTADFSPAVSQSGDFLAVASYGTRSWGGEFHEINTDITVFKASKPETRVVICERGGWPTWSGDSTVFFHHQADDGWWSIFRVDIPENFTEYTDFPITPIRVTPSGLHCFTPAAFRDGKRIALATRRRGVNHRHIEIYDLENTTFQPVTESLNPSFHHYNPFVSPDSEFLGYHRFRGESTQGESIVPNIESIVSPIKTLRLLRINGSFPSSSPNGDLIALNSDFDINGGIKVSKSDGSKRWTLIKDRTAFYNSWSPTERHVIYTSLGPIFSPARIAVQIARIKFDPSDLTADKEDLPCDVKILTLENTGNNAFPSCSPDGKSIVFRSGRSGHKNLYIVDAVNGESNGGGIRRLTDGPWIDTMPCWSPKGDLIGFSSNRHNPENTAVFGAYVVRPDGTGLRRIQISGPEGSEEAARERVNHVSFNKDGDWLVFAANLSGVTAEPVTMPNQFQPYGDLYVVKLDGTGLRRLTWNGYEDGTPTWHTADELDLSQLNLNGQDGDKLEGQFEEPLWISCDI,failed
8,METQFHGGDGEDPWLARDKLYHVIFCFSISLIFSTLASFSRYSFLRRHSIWIGSAFSLAAGAAKEAADQIGIFPSAGASVRDAVADAIGVVIAALVLLLWKSRRSRTRPILPI,failed
9,METRAAENTAIFMCKCCNLFSPNQSELLSHVSEKHMEEGVNVDEIIIPLRPLSTPEPPNSSKTRDEFLVMKRKRGRPKGSTKKSSTEEELAENIVSPTEDSPLAPEEGNSLPPSSLECSKCCRKFSNTRQLRKHICIIVLNLGEEEGEAGNESDLELEKKCKEDDREKASKRPRSQKTEKVQKISGKEARQLSGAKKPIISVVLTAHEAIPGATKIVPVEAGPPETGATNSETTSADLVPRRGYQEYAIQQTPYEQPMKSSRLGPTQLKIFTCEYCNKVFKFKHSLQAHLRIHTNEKPYKCPQCSYASAIKANLNVHLRKHTGEKFACDYCSFTCLSKGHLKVHIERVHKKIKQHCRFCKKKYSDVKNLIKHIRDAHDPQDKKVKEALDELCLMTREGKRQLLYDCHICERKFKNELDRDRHMLVHGDKWPFACELCGHGATKYQALELHVRKHPFVYVCAVCRKKFVSSIRLRTHIKEVHGAAQEALVFTSSINQSFCLLEPGGDIQQEALGDQLQLVEEEFALQGVNALKEEACPGDTQLEEGRKEPEAPGEMPAPAVHLASPQAESTALPPCELETTVVSSSDLHSQEVVSDDFLLKNDTSSAEAHAAPEKPPDMQHRSSVQTQGEVITLLLSKAQSAGSDQESHGAQSPLGEGQNMAVLSAGDPDPSRCLRSNPAEASDLLPPVAGGGDTITHQPDSCKAAPEHRSGITAFMKVLNSLQKKQMNTSLCERIRKVYGDLECEYCGKLFWYQVHFDMHVRTHTREHLYYCSQCHYSSITKNCLKRHVIQKHSNILLKCPTDGCDYSTPDKYKLQAHLKVHTALDKRSYSCPVCEKSFSEDRLIKSHIKTNHPEVSMSTISEVLGRRVQLKGLIGKRAMKCPYCDFYFMKNGSDLQRHIWAHEGVKPFKCSLCEYATRSKSNLKAHMNRHSTEKTHLCDMCGKKFKSKGTLKSHKLLHTADGKQFKCTVCDYTAAQKPQLLRHMEQHVSFKPFRCAHCHYSCNISGSLKRHYNRKHPNEEYANVGTGELAAEVLIQQGGLKCPVCSFVYGTKWEFNRHLKNKHGLKVVEIDGDPKWETATEAPEEPSTQYLHITEAEEDVQGTQAAVAALQDLRYTSESGDRLDPTAVNILQQIIELGAETHDATALASVVAMAPGTVTVVKQVTEEEPSSNHTVMIQETVQQASVELAEQHHLVVSSDDVEGIETVTVYTQGGEASEFIVYVQEAMQPVEEQAVEQPAQEL,not failed
10,METRAHHVLIGLFTVIVVAGALLFGLWLAKSSVDSAFQDYQIVFNEAVSGLSKGSSVQYSGIKVGDVVNLRLDPKDPRRVLAQIRLGSETPIKEDTQAKLALTGITGTSIIQLSGGTPQSPTLKGKDGELPTIIASPSPIARLLNNSNDLMTGVNLLLHNANRMFSPDNVARVSSTLDNLQKTSASIAEQRDDLRQLMQQLGSISKQTGAMLEQTTALMRNANGLLNDQGKQMFGSAEHAMRSLEQSSATLNKLLSDNQDSLNNGMQGLNGLAPAVRELRETLSSLRAITRRLEANPGGYLLGNEKNKEFTPLEHHHHHH,not failed
11,METSLISPMKENNTAQPQQREENTQQNLNAAVPIKQQSPGLLPEALEVGVKPDPASQILATQEIENPVAGFEGDSDKFHISTDEMAEHLQASDLWYCPDGSFVKKIIVHGHGLDKPKLGSKCRVLALGFPFGSGMPEGWTELTIGTGQWREKTWGELTEKCLESMRQGEEAKIHLPGSSTPLAKLRLDSFTNGRDSWELEAVEKEALAKEEHRRGTELFRAGNPQGAARCYGRALRLLLTLPPPGPPERTILHANLAACQLLLGHPQLAAQSCDRVLEREPGHLKALYRRGVAQAALGDLDKATADLKKVLAVDPKNRAAKEELGKVVIQGKIQDAGLARGLRKMFS,failed
12,METWITSIMADFGYIGIFLLIMIENLFPPIPSEIILTFGGFMTTVSSLNVVMVIIVATLGSVVGAILLYKVASYFGKERLTHIVLKYGRVLRLKESDIERAESFFLKYGSWAVFLCRMIPLIRSLISIPAGMTKMKMSRFLILTTAGSLLWNTVLIGLGALLGESWGEIVVFMDSFSTVIYSIIAVITLLGLGFFFRARFKKTLDEE,failed
13,MEVAPSFSSVLKDCAVIEGQDFVLQCSVRGTPVPRITWLLNGQPIQYARSTCEAGVAELHIQDALPEDHGTYTCLAENALGQVSCSAWVTVH,not failed
14,MEVFKVFATLSLVDMISGPLGSVSEGMELLGGKVSALGSRMGKLAVAMAPVALAAGVLLGTLGLAAREAIAFESAMADVAKVVNFESAGELKAMSATILDMSTRIPMAADGLAAIVAAAAQSGVARQDLTDFAEQAAKMGVAFDLTGDQAGKMMADWRAGMNLTLPRVYALADATNHLSNNMNATAPALGEVIQRVGAVGMAAGLSETQVAALGAAFLSAGASPEIASTALKKFTSTLVRGSALSKDAQAAFGALGFSVTQMAKDMQTDAQGTIFKVLQALADKPKELQMSLLTEMFGEEALGAIAPLLANMGNLSQAFDLVGDSAAYAGSMQGEFEARSRTTENALLLLGNKAKALMIVIGSYFLPVIGAVADALGGFVDMLRAAAQTAGGEFALKLVAGVSAAIVAATALSGALWLLSAAGPMLAAALAPLKAALLGLSWPMWAIIAVVGALYLAYKTNFAGIGDTLRRWWQTVSLVVRGVMAVFSTLTDGVGEIRGELATEIRAAGLEGLVASVGSVVYRVQAFFRGLWDGVSGVGDRLAVVFGPTLDRLGAVFGQLFTVLGGLGEAFFGVSAASDVSGWERFGNVIGSVVCGAVEILATAFTALLAPIEMAAGMLQFVLDLFNGVSLFDAGAKLLGTFVDGIMSMVSAPFEAAKKALDMVGKLLPHSDADEGPLSTLTASGMATLSTMGEGMTAAAPGLHDTLETALGDAVAPQIEAPATADVQPGRKTARAAQGRGVTITIGTLNLPGVTNAQDFVAQLQDFVAAYDGVPEGGLV,failed
15,MEVFLKEFLLNKFFIDFFYKNQNNITIKTILVTFKVIFSICFNSSNFGLRYSKKKTLNLSELMHLVTFMLAYFLIQV,failed
16,MEVKIEKPTPEKLKELSVEKWPIWEKEVSEFDWYYDTNETCYILEGKVEVTTEDGKKYVIEKGDLVTFPKGLRCRWKVLEPVRKHYNLF,not failed
